Laboratory results taken from patent publication US12297265B2, “Antibody and use thereof” (SICHUAN KELUN-BIOTECH BIOPHARMACEUTICAL CO., LTD., priority 2018, dated 2025).
Marks after values point to notes of the source that are not given here.

Columns and labels:
[1] = test system: Ba/F3-Claudin 18.2 cells; assay: ADCC activity on Ba/F3-Claudin 18.2 cells (NK-92MI_mCD16, CytoTox-Glo); format: cell-based; details: Ba/F3-Claudin 18.2 target cells, NK-92MI_mCD16 effector cells, 6h
Description: In order to evaluate the ADCC activity, ten thousand Ba/F3-Claudin18.2 cells were cultured in 40 μl NK-92 media. Antibodies were serially diluted in 10 μl PBS. Fifty thousand NK-92MI_mCD16 cells in 50 μl NK-92 media were added and the reactions were incubated at 37° C. for 6h. 33.3 μl CytoTox-Glo (Promega, G9290) was added to each reaction […].

[2] = test system: HEK293T-Claudin 18.2 cells; assay: CDC killing of HEK293T-Claudin 18.2 cells (guinea pig serum, CCK8); format: cell-based; details: 20% guinea pig serum, 3 h
Description: The procedure is described as follows: HEK293T-Claudin 18.2 cells were harvested and centrifuged followed by adjustment of cell density. 5×10^4/well of cells were plated on a plate and incubated overnight. […] Starting from 20 μg/mL, 10 concentrations were prepared with two-fold dilution. The original cell culture media for HEK293T-Claudin 18.2 cells was removed, and the antibody dilutions were added to the corresponding wells, 100 μL/well. 10 μl/well lysis buffer was provided as the positive control. The reactions were left to stand in incubator at 37° C., 5% CO2 and incubated for 3 h. Then, CCK8 (Rhinogen, QDY-003-D) was added at 20 μl/well and allowed to react for 2h. Absorbance at 450 nm were taken on a plate reader (MD, SpectraMax M2). The results were subjected to curve fitting by Graphpad Prism.

[3] = test system: HEK293T-Claudin 18.2 cells; assay: NK cell mediated ADCC on HEK293T-Claudin 18.2 cells (LDH); format: cell-based; details: HEK293T-Claudin 18.2 target cells
Description: (§1) The steps were as follows: HEK293T-Claudin 18.2, L929-Claudin 18.2, KATOIII-Claudin 18.2 and NUGC-4 cells were harvested and centrifuged followed by adjustment of cell density. 1×10^4/well of cells were plated on a plate and incubated overnight. The medium was removed on the next day. NK92MI-CD16a cells (Huabo Biopharm) were centrifuged, resuspended in MEMA medium and adjusted to 1×10^6/mL, then 50 μL/well cells were added to the corresponding wells. […] For HEK293T-Claudin18.2, L929-Claudin18.2 and KATOIII-Claudin18.2 cells, ten antibody concentrations were tested, starting from 40 μg/mL with 5-fold dilution. For NUGC-4 cells, eleven antibody concentrations were tested, starting from 2 mg/mL with 5-fold dilution. 50 μL/well of the diluted antibodies were added to the corresponding wells and the reactions were left to stand in incubator at 37° C., 5% CO2 and incubated for 5.5h. Lysis buffer was then added to the positive control well and incubated for another 0.5h. 50 μL/well of Lactate Dehydrogenase (LDH) detection agent (DOJINDO LABORATORISE, CK12) were added to the wells and the absorbance at 490 nm were taken every 10 min on a plate reader (MD, SpectraMax M2). The results were imported into Graphpad Prism for curve fitting.
The cell used was HEK293T-Claudin 18.2. The ADCC activity of antibody 2C6.9-hz21 on HEK293T-Claudin 18.2 is stronger than that of IMAB362.

[4] = test system: L929-Claudin 18.2 cells; assay: NK cell mediated ADCC on L929-Claudin 18.2 cells (LDH); format: cell-based; details: L929-Claudin 18.2 target cells, NK92MI-CD16a effector cells
Description: as §1

[5] = test system: KATOIII-Claudin 18.2 cells; assay: NK cell mediated ADCC on KATOIII-Claudin 18.2 cells (LDH); format: cell-based; details: KATOIII-Claudin 18.2 target cells, NK92MI-CD16a effector cells
Description: as §1

[6] = test system: NUGC-4 cells; assay: NK cell mediated ADCC on NUGC-4 cells (LDH); format: cell-based, human; details: NUGC-4 target cells, NK92MI-CD16a effector cells
Description: as §1

[7] = Pharmacokinetics in SCID mice; format: in vivo; details: 10 mg/kg intravenously
Description: Blood samples were taken 8 h, 1 d, 3 d, 8 d and 15 d after injection and serum antibody concentrations were determined by Cellular ELISA as described in Example 8. […] The data of mouse serum was subjected to curve fitting.

[8] = target: human Claudin18.2 (Homo sapiens, UniProt P56856); assay: Cellular ELISA on NUGC-4 cells; format: binding; set-up: cell lines endogenously expressing human Claudin18.2; host or cells: NUGC-4 human gastric cancer cell line
Description: Human Claudin18.2 is a four transmembrane protein and has a complex structure. Cellular ELISA was thus carried out to maintain the structure of Claudin18.2. The stable cell line L929-Claudin 18.2 constructed in Example 1 were used for detection. Specifically, L929-Claudin 18.2 adherent cells were detached by 2 mM EDTA treatment. The cells were resuspended and adjusted to 2×10^5/mL and 100 μL of the resuspension was plated into 96 well plate and incubated overnight at 37° C. The next day, the media was removed, and the plate was washed with PBS once. 100 μL/well 4% formaldehyde was added to the plate. After 30 min of incubation at room temperature, formaldehyde was removed, followed by washing twice with PBS. […] The absorbance at 450 nm was read on a plate reader (MD, SpectraMax M2) and the results were subjected to curve fitting by Graphpad Prism.
To determine binding affinity of the candidate antibodies to cell lines endogenously expressing human Claudin18.2, FACS analysis was performed to detect human Claudin18.2 expression level on NUGC-4 cells (purchased from Japan JCRB cell bank, catalog number: JCRB0834) which endogenously expresses human Claudin18.2. […] The binding affinity between candidate antibodies and NUGC-4 cells was then determined by Cellular ELISA following the same protocol as above.

OD450 (Max signal value) [8]: Not detected
Substance: IMAB362: Zolbetuximab (IMAB362) developed by Astellas, human-mouse chimeric IgG1 antibody targeting Claudin 18.2; control antibody, sequences from CN 101312989 B [reference compound]
ADCC EC50 [1]: 0.351* μg/mL | Max killing rate [1]: 54.17* % | maximal killing rate (CDC) [2]: about 70% | Max. Cytotoxicity ([3]; NK92MI-CD16a effector cells, Table 13): 55% | Max Cytotoxicity ([3]; Table 14 experiment): 20% | Max. Cytotoxicity [4]: 52% | Max. Cytotoxicity [5]: 49% | Max. Cytotoxicity [6]: 35% | AUC [7]: 7391.22 µg·h/mL
